This is an account of results in the RNAGym collection of RNA variant scans (doi:10.7554/elife.80360).

The labels stand for the following.
B1: Hairpin Ribozyme (parent)
chain: GUCCUCUUUCACGUGCGCGUGAAAGAGAGAAGUGAACCAGAGAAACACACGUUGUGGUAUAUUACCUGGUA

The variants in this series derive from B1. As to the kind of experiment: self-cleavage, relative activity (ratio to wild type); higher = more cleavage; co-transcriptional.
For the variant GUGCUCUUUCACGUGCGCGUGAAAGAGAGAAGUGAACCAGAGAAACACACGUUGUGGUAUUUUACCUGGUA, the self-cleavage was 0.0942.

For GUGCUCUUUCACGUGCGCGUGAAAGAGAGAAGUGAACCAGAGAAACACACGUUGUGGUAUGUUACCUGGUA, the self-cleavage is 0.0947.

As to GUGCUCUUUCACGUGCGCGUGAAAGAGAAAAGUGAACCAGAGAAACACACGUUGUGGUAUAUUACCUGGUA, the self-cleavage is 0.148.

As to GUGCUCUUUCACGUGCGCGUGAAAGAGAGAAGUGAACCAGAGAAACACACGUUGUGGUCUAUUACCUGGUA, the self-cleavage came out at 0.064.

Consider GUGCUCUUUCACGUGCGCGUGAAAGAGAGAAGUGAACCAGAGAAACACACGUUGUGGUAUAUUACCUCGUA, for which the self-cleavage was found to be 0.188.

As for GUGCUCUUUCACGUGCGCGUGAAUGAGAGAAGUGAACCAGAGAAACACACGUUGUGGUAUAUUACCUGGUA, the self-cleavage came out at 0.248.

Take GUGCUCUUUCACGUGCGCGUGAAGGAGAGAAGUGAACCAGAGAAACACACGUUGUGGUAUAUUACCUGGUA: the self-cleavage was determined as 0.294.

Turning to GUGCUCUUUCACGUGCGCGUGAACGAGAGAAGUGAACCAGAGAAACACACGUUGUGGUAUAUUACCUGGUA, the self-cleavage was found to be 0.238.

As for GUGCUCUUUCACGUGCGCGUGAAAGAGAGAAGUGAACCAGAGAAACACACGUUGUGGUAUAUUACUUGGUA, the self-cleavage amounted to 0.251.

In the case of GUGCUCUUUCACGUACGCGUGAAAGAGAGAAGUGAACCAGAGAAACACACGUUGUGGUAUAUUACCUGGUA, the self-cleavage came to 0.281.

With GUGCUCUUUCACGUGCGCGUGAAAGAGAGCAGUGAACCAGAGAAACACACGUUGUGGUAUAUUACCUGGUA, the self-cleavage came out at 0.0439.

Turning to GUGCUCUUUCACGUGCGCGUGAAAGAGAGUAGUGAACCAGAGAAACACACGUUGUGGUAUAUUACCUGGUA, the self-cleavage was determined as 0.118.

As to GUGCUCUUUCACGUGCGCGUGAAAGAGAGAAGUGAACCAGAGAAACACACGUUGUGGUAUAUUACCUGUUA, the self-cleavage is 0.141.

GUGCUCUUUCACGUGCGCGUGAAAGAGAGAAGUGAACCAGAGAAACACGCGUUGUGGUAUAUUACCUGGUA: the self-cleavage was found to be 0.148.

In the case of GUGCUCUUUCACGUGCUCGUGAAAGAGAGAAGUGAACCAGAGAAACACACGUUGUGGUAUAUUACCUGGUA, the self-cleavage was 0.365.

With GUGCUCUUUCACGUGCGCGUGAAAGAGAGAAGUGAACGAGAGAAACACACGUUGUGGUAUAUUACCUGGUA, the self-cleavage amounted to 0.0857.

Consider GUGCUCUUUCACGUGCGCGUGAAAGAGAGAAGUGAACUAGAGAAACACACGUUGUGGUAUAUUACCUGGUA, for which the self-cleavage was 0.133.

In the case of GUGCUCUUUCACGUGCGCGUGAAAGAGAGAAGUGAACCAGAGAAACGCACGUUGUGGUAUAUUACCUGGUA, the self-cleavage came to 0.179.

In the case of GUGCUCUUUCACGUGCGCGUGAAAGAGAGAAGUGAACCAUAGAAACACACGUUGUGGUAUAUUACCUGGUA, the self-cleavage is 0.0655.

Turning to GUGCUCUUUCACGUGCGCGUGAAAGAGAGAAGUGAACCAAAGAAACACACGUUGUGGUAUAUUACCUGGUA, the self-cleavage turned out to be 0.0852.

As to GUGCUCUUUCACGUGCGCGUGAAAGAGAGAAGUGAACCACAGAAACACACGUUGUGGUAUAUUACCUGGUA, the self-cleavage came to 0.147.

As to GUGCUCUUUCACGUGCGCGUGAAAGAGAGAUGUGAACCAGAGAAACACACGUUGUGGUAUAUUACCUGGUA, the self-cleavage was found to be 0.057.

As for GUGCUCUUUCACGUGCGCGUGAAAGAGAGAGGUGAACCAGAGAAACACACGUUGUGGUAUAUUACCUGGUA, the self-cleavage stood at 0.0813.

Turning to GUGCUCUUUCACGUGCGCGUGAAAGAGAGACGUGAACCAGAGAAACACACGUUGUGGUAUAUUACCUGGUA, the self-cleavage came to 0.0694.

GUGCUCUUUCACGUGCGCGUGAAAAAGAGAAGUGAACCAGAGAAACACACGUUGUGGUAUAUUACCUGGUA: the self-cleavage is 0.146.

On to GUGCUCUUUCACGUGCGCGUGAAAUAGAGAAGUGAACCAGAGAAACACACGUUGUGGUAUAUUACCUGGUA, for which the self-cleavage turned out to be 0.138.

As for GUACUCUUUCACGUGCGCGUGAAAGAGAGAAGUGAACCAGAGAAACACACGCUGUGGUAUAUUACCUGGUA, the self-cleavage is 0.619.

Consider GUGCUCUUUCACGUGCGCGUGAAAGAGAGAAGUGAACCAGAGAAACACACGUUGUGGUAGAUUACCUGGUA, for which the self-cleavage was 0.0943.

For the variant GUGCUCUUUCACGUGCGCGUGAAAGAGAGAAGGGAACCAGAGAAACACACGUUGUGGUAUAUUACCUGGUA, the self-cleavage was found to be 0.156.

As to GUGCUCUUUCACGUGCGCGUGAAAGAGAGAAGCGAACCAGAGAAACACACGUUGUGGUAUAUUACCUGGUA, the self-cleavage stood at 0.143.

GUGCUCUUUCACGUGCGCGUGAAAGAGAGAAGUCAACCAGAGAAACACACGUUGUGGUAUAUUACCUGGUA: the self-cleavage was found to be 0.911.

In the case of GUGCUCUUUCACGUGCGUGUGAAAGAGAGAAGUGAACCAGAGAAACACACGUUGUGGUAUAUUACCUGGUA, the self-cleavage came out at 0.341.

Take GUGCUCUUUCACGUGCGGGUGAAAGAGAGAAGUGAACCAGAGAAACACACGUUGUGGUAUAUUACCUGGUA: the self-cleavage was 0.34.

Consider GUGCUCUUUCACGUGUGCGUGAAAGAGAGAAGUGAACCAGAGAAACACACGUUGUGGUAUAUUACCUGGUA, for which the self-cleavage was 0.305.

Regarding GUGCUCUUUCACGUGCGCGUGAAAGAGAGAAGUGAACCAGAGAAACACAUGUUGUGGUAUAUUACCUGGUA, the self-cleavage is 0.13.

In the case of GUGCUCUUUCACGUGCGCGUGAAAGAGAGAAGUGAACCAGAGAAACACAAGUUGUGGUAUAUUACCUGGUA, the self-cleavage was 0.0499.

Turning to GUGCUCUUUCACGUGCGCGUGAAAGAGAGAAGUGAACCAGAGAAACACACGUUAUGGUAUAUUACCUGGUA, the self-cleavage came to 0.177.

As for GUACUCUUUCACGUGCGCGUGAAAGAGAGAAGUGAACCAGAGAAACACACGUUGUGGUAUAAUACCUGGUA, the self-cleavage stood at 0.184.

As for GUACUCUUUCACGUGCGCGUGAAAGAGAGAAGUGAACCAGAGAAACACACGUUGUGGUAUAGUACCUGGUA, the self-cleavage turned out to be 0.101.

As to GUACUCUUUCACGUGCGCGUGAAAGAGAGAAGUGAACCAGAGAAACACACGUUGUGGGAUAUUACCUGGUA, the self-cleavage came out at 0.274.

As for GUACUCUUUCACGUGCGCGUGAAAGAGAGAAGUGAACCAGAGAAACACACGUUGUGGAAUAUUACCUGGUA, the self-cleavage was determined as 0.637.

Take GUACUCUUUCACGUGCGCGUGAAAGAGAGAAGUGAACCAGAGAAACACACGUUGUGGCAUAUUACCUGGUA: the self-cleavage is 0.811.

For the variant GUACUCUUUCACGUGCGCGUGAAAGAGAGAAGUGAACCAGAGAAACACACGUUGUGGUAGAUUACCUGGUA, the self-cleavage was 0.338.

As to GUGCUCUUUCACGUGCGCGUGAAAGAGCGAAGUGAACCAGAGAAACACACGUUGUGGUAUAUUACCUGGUA, the self-cleavage stood at 0.541.

In the case of GUGCUCUUUCACGUGCGCGUGAAAGAGGGAAGUGAACCAGAGAAACACACGUUGUGGUAUAUUACCUGGUA, the self-cleavage stood at 0.362.

Turning to GUGCUCUUUCACGUGCGCGUGACAGAGAGAAGUGAACCAGAGAAACACACGUUGUGGUAUAUUACCUGGUA, the self-cleavage amounted to 0.194.

Turning to GUGCUCUUUCACGUGCGCGUGAAAGAGAGAAGUGAACCAGAUAAACACACGUUGUGGUAUAUUACCUGGUA, the self-cleavage is 0.188.

For GUGCUCUUGCACGUGCGCGUGAAAGAGAGAAGUGAACCAGAGAAACACACGUUGUGGUAUAUUACCUGGUA, the self-cleavage turned out to be 0.0419.

As for GUGCUCUUUCACGUGCGCGUGCAAGAGAGAAGUGAACCAGAGAAACACACGUUGUGGUAUAUUACCUGGUA, the self-cleavage was found to be 0.227.

Regarding GUUCUCUUUCACGUGCGCGUGCAAGAGAGAAGUGAACCAGAGAAACACACGUUGUGGUAUAUUACCUGGUA, the self-cleavage is 0.491.

GUGCUCUUUCACGUGCGCGUGAAAGUGAGAAGUGAACCAGAGAAACACACGUUGUGGUAUAUUACCUGGUA: the self-cleavage was found to be 0.214.

In the case of GUGCUCUUUCUCGUGCGCGUGAAAGAGAGAAGUGAACCAGAGAAACACACGUUGUGGUAUAUUACCUGGUA, the self-cleavage was 0.28.

In the case of GUGCUCUUUCACGUGCGCGUGAAAGAGAGAAGUGAACCAGAGAAACACACGAUGUGGUAUAUUACCUGGUA, the self-cleavage was 0.332.

Take GUGCUCUUUUACGUGCGCGUGAAAGAGAGAAGUGAACCAGAGAAACACACGUUGUGGUAUAUUACCUGGUA: the self-cleavage is 0.213.

On to GUGCCCUUUCACGUGCGCGUGAAAGAGAGAAGUGAACCAGAGAAACACACGUUGUGGUAUAUUACCUGGUA, for which the self-cleavage worked out at 0.132.

On to GUGCUCUUUCACGCGCGCGUGAAAGAGAGAAGUGAACCAGAGAAACACACGUUGUGGUAUAUUACCUGGUA, for which the self-cleavage amounted to 0.238.

Take GUGCUCUUUCACGUGCGCGUGAAAGAUAGAAGUGAACCAGAGAAACACACGUUGUGGUAUAUUACCUGGUA: the self-cleavage amounted to 0.164.

As for GUGCUCGUUCACGUGCGCGUGAAAGAGAGAAGUGAACCAGAGAAACACACGUUGUGGUAUAUUACCUGGUA, the self-cleavage came to 0.281.

As for GUGGUCUUUCACGUGCGCGUGAAAGAGAGAAGUGAACCAGAGAAACACACGUUGUGGUAUAUUACCUGGUA, the self-cleavage was 0.244.

Turning to GUGCUCUUUCACGUGCGCGUGAAAGAGAGAAGUGAACCAGAGAAACACACGUUGUGGGAUAUUACCUGGUA, the self-cleavage was found to be 0.0994.

GUGCUCUUUCACGUGCGCGUGAAAGAGAGAAGUGAACCAGAGAAACACACGUUGUGGCAUAUUACCUGGUA: the self-cleavage came out at 0.311.

For the variant GUGCUCUUUCACGUGCGCGUGAAAGAGAGAAGUGAACCAGAGACACACACGUUGUGGUAUAUUACCUGGUA, the self-cleavage is 0.153.

In the case of GUGCUCUUUCACGUGCGCGUGAAAGAGAGAAGUGAACCAGAGCAACACACGUUGUGGUAUAUUACCUGGUA, the self-cleavage was determined as 0.168.

GUGCUCUUUCACGUGCGCGUGAAAGAGAGAAGUGAACCAGAGGAACACACGUUGUGGUAUAUUACCUGGUA: the self-cleavage amounted to 0.0516.

Take GUGCUCUUUCACGUGCGCGUGAAAGAGAGAAGUGAACCAGAGUAACACACGUUGUGGUAUAUUACCUGGUA: the self-cleavage came to 0.111.

For GUACUCUUUCACGUGCGCGUGAAAGAGAGAAGUGAACCAGAGAAACACACGUUGUGGUAUAUUACCCGGUA, the self-cleavage was 0.155.

GUACUCUUUCACGUGCGCGUGAAAGAGAGAAGUGAACCAGAGAAACACACGUUGUGGUAUAUCACCUGGUA: the self-cleavage was 0.154.

GUACUCUUUCACGUGCGCGUGAAAGAGAGAAGUGAACCAGAGAAACACACGUUGUGGUAUAUGACCUGGUA: the self-cleavage was 0.174.

For GUGCUCUUUCACUUGCGCGUGAAAGAGAGAAGUGAACCAGAGAAACACACGUUGUGGUAUAUUACCUGGUA, the self-cleavage was found to be 0.259.

In the case of GUGCUCUUUCACGUGCGCGUGAAAGAGAGAAGUGAUCCAGAGAAACACACGUUGUGGUAUAUUACCUGGUA, the self-cleavage turned out to be 0.174.

Regarding GUGCUCUUUCACGUGCGCGUUAAAGAGAGAAGUGAACCAGAGAAACACACGUUGUGGUAUAUUACCUGGUA, the self-cleavage was found to be 0.252.

On to GUGCUCUCUCACGUGCGCGUGAAAGAGAGAAGUGAACCAGAGAAACACACGUUGUGGUAUAUUACCUGGUA, for which the self-cleavage amounted to 0.166.

Consider GUGCUCUUUCACGUGCGCGUGAAAGAGAGAAUUGAACCAGAGAAACACACGUUGUGGUAUAUUACCUGGUA, for which the self-cleavage was 0.141.

With GUGCUCUUUCACGUGCGCGUGAAAGAGAGAACUGAACCAGAGAAACACACGUUGUGGUAUAUUACCUGGUA, the self-cleavage stood at 0.0586.

Turning to GUGCUCUUUCACGUGCGCGCGAAAGAGAGAAGUGAACCAGAGAAACACACGUUGUGGUAUAUUACCUGGUA, the self-cleavage came out at 0.302.

GUGCUCUUUCACGUGCGCGUGAAAGAGAGAAGUGAACCAGAGAAACACACGUUGUGGUAUAUUACCUGGGA: the self-cleavage was 0.272.
